# Reference: patent publication US20190359732A1
# Target: antigen CD3 (Biacore analysis) (Homo sapiens (Human)) (UniProt P07766)
# Assay: SPR (Biacore)
binder,measurement,value
"huOKT3 IgG1-aGlyco (antibody, V domains shown) VH: QVQLVQSGGGVVQPGRSLRLSCKASGYTFTRYTMHWVRQAPGKGLEWIGYINPSRGYTNYNQKFKDRFTISRDNSKNTAFLQMDSLRPEDTGVYFCARYYDDHYCLDYWGQGTPVTVSS VL: DIQMTQSPSSLSASVGDRVTITCSASSSVSYMNWYQQTPGKAPKRWIYDTSKLASGVPSRFSGSGSGTDYTFTISSLQPEDIATYYCQQWSSNPFTFGQGTKLQITR",Kd,64.6 nM
same,koff,0.109 s⁻¹
same,kon,1.68e+06 M⁻¹ s⁻¹
